{"source": "paper PMC4077652", "about": "“An Unstable Th Epitope of P. falciparum Fosters Central Memory T Cells and Anti-CS Antibody Responses” (PLoS ONE, 2014)", "key": {"[1]": {"biological_target": "soluble recombinant HLA-DR4 (HLA-DRβ1*04:01) (human)"}, "[2]": {"biological_target": "soluble recombinant HLA-DR4 (HLA-DRβ1*04:01) (human)", "assay": "ELISA"}, "[3]": {"biological_target": "soluble recombinant HLA-DR4 (HLA-DRβ1*04:01) (human)", "assay": "ELISA", "remark": "listed apart in the source"}, "[4]": {"biological_target": "soluble recombinant HLA-DR4 (HLA-DRβ1*04:01) (human)", "assay": "ELISA; apparent Kd; direct binding of biotin-labeled peptide to DR4 as in the DR-ELISA (72 h), binding reactions set up with 1 µM HLA-DM"}, "[5]": {"biological_target": "soluble recombinant HLA-DR4 (HLA-DRβ1*04:01) (human)", "assay": "dissociation kinetics (LB3.1 capture, europium-streptavidin time-resolved fluorescence)"}}, "note": "Where “and” joins values, the source holds several entries; their conditions need not be identical. Equal values may be shown once. Read-outs that look alike come from different tables or passages of the source.", "data": [{"substance": "biotin-labeled HA 306-318 peptide", "values": [{"measurement": "half-life", "setting": "[1]", "result": 25.8, "unit": "days"}]}, {"substance": "biotin-labeled T* 326-345 peptide (NF-54 variant)", "values": [{"measurement": "Kd", "setting": "[2]", "result": "248 nM and 123 nM"}]}, {"substance": "HA 306-318 peptide, unlabeled", "values": [{"measurement": "IC50", "setting": "[2]", "result": 310, "unit": "nM"}, {"measurement": "IC50", "setting": "[3]", "result": 172, "unit": "µM"}]}, {"substance": "QNT-5 332-345 peptide, unlabeled", "values": [{"measurement": "IC50", "setting": "[2]", "result": 1700, "unit": "nM"}]}, {"substance": "biotin-labeled T*-1 327-338 peptide", "values": [{"measurement": "Kd", "setting": "[2]", "result": 42.6, "unit": "nM"}, {"measurement": "Kd", "setting": "[4]", "result": 51.6, "unit": "nM"}, {"measurement": "half-life", "setting": "[5]", "result": 2.66, "unit": "days"}, {"measurement": "half-life with HLA-DM", "setting": "[5]", "result": 294, "unit": "min"}]}, {"substance": "QNT-Y peptide (QNT-5 analogue L335Y), unlabeled", "values": [{"measurement": "IC50", "setting": "[2]", "result": 130, "unit": "nM"}]}]}
